How the values were obtained:
[1] = target: Serine/threonine (Ser/Thr) phosphorylated Myelin Basic Protein substrate (33P labeled)
[2] = target: T1, Peptide 2 (phosphothreonine peptide) H-Thr-Ala-Asp-Ser-Gln-His-Ser-pThr-Pro-Pro-Lys-Lys-Lys-Arg-Lys-Val-Glu-OH
T1 chain: TADSQHSTPPKKKRKVE

[3] = target: Tyrosine (Tyr) phosphorylated Myelin Basic Protein substrate (33P labeled)
[4] = target: T2, Peptide 1 (phosphoserine peptide) H-Val-Pro-Ile-Pro-Gly-Arg-Phe-Asp-Arg-Arg-Val-pSer-Val-Ala-Ala-Glu-NH2
T2 chain: VPIPGRFDRRVSVAAE

[5] = target: T3, Peptide 3 (phosphotyrosine peptide) H-Glu-Trp-Met-Arg-Glu-Asn-Ala-Glu-pTyr-Leu-Arg-Val-Ala-OH
T3 chain: EWMRENAEYLRVA

Sequence of Serine/threonine (Ser/Thr) phosphorylated Myelin Basic Protein substrate (33P labeled) (P02687 whole entry): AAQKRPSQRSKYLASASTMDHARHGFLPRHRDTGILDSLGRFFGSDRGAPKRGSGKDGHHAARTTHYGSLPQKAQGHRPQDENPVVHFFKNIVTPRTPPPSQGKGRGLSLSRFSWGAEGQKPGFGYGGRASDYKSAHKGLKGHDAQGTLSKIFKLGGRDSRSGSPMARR
Sequence of Tyrosine (Tyr) phosphorylated Myelin Basic Protein substrate (33P labeled) (P02687 whole entry): as above

B1: thermolabile Antarctic phosphatase (TAP), truncated, with N-terminal His-tag (expressed from pEGTAP7.4.1) (protein)
chain: MHHHHHHMKLKKIVFTLIALGLFSCKTTSVLVKNEPQLKTPKNVILLISDGAGLSQISSTFYFKEGTPNYTQFKNIGLIKTSSSREDVTDSASGATAFSCGIKTYNAAIGVADDSTAVKSIVEIAALNNIKTGVVATSSITHATPASFYAHALNRGLEEEIAMDMTESDLDFFAGGGLNYFTKRKDKKDVLAILKGNQFTINTTGLTDFSSIASNRKMGFLLADEAMPTMEKGRGNFLSAATDLAIQFLSKDNSAFFIMSEGSQIDWGGHANNASYLISEINDFDDAIGTALAFAKKDGNTLVIVTSDHETGGFTLAAKKNKREDGSEYSDYTEIGPTFSTGGHSATLIPVFAYGPGSEEFIGIYENNEIFHKILKVTKWNQ
- specific activity (release of 33P from phosphorylated MyBP, TCA-soluble counts) [1]: 1910 nmol/min/mg
- units of TAP required to completely remove the phosphates from 5 µg of the peptide in 10 mins (Cap-HPLC) [2]: 2.5 units and 10 units of TAP were required to completely remove the phosphates from the phospho-serine and phospho-threonine peptides respectively
- specific activity (release of 33P from phosphorylated MyBP, TCA-soluble counts) [3]: also greater than the specific activity for CIAP
- units of TAP required to completely remove the phosphates from 5 µg of the peptide in 10 mins (Cap-HPLC) [4]: 2.5 units and 10 units of TAP were required to completely remove the phosphates from the phospho-serine and phospho-threonine peptides respectively
- units of enzyme required to remove all the phosphates from 5 µg of the peptide in 10 mins (Cap-HPLC) [5]: only 0.02 units of enzyme being required to remove all the phosphates from 5 µg of the peptide in 10 mins

Reference: patent publication US20060252118
